One substance from paper PMC6159515 can be followed below.

In this experiment the target is CglEndoMS-ΔCter, His-tagged (lacks the five carboxy-terminal residues of CglEndoMS) (Corynebacterium glutamicum ATCC 13032). The experiment is described as follows: SEC.

Usually stoichiometry N stands for the number of molecules, sites or subunits per partner or assembly. In turn, “CglEndoMS-ΔCter, His-tagged (lacks the five carboxy-terminal residues of CglEndoMS) (domain or fragment)” returned a stoichiometry N of 2.
